Data: the RNAGym collection of RNA variant scans (doi:10.1101/gr.219683.116)

B1: mRNA-splicing (parent)
chain: AGUUGCUGCUGGGAGCUCCAGCACAGUGAAAUGGACAGAAGGGCAGAGCAA

Variants of: B1
Assay: exon inclusion enrichment index; higher = more inclusion; WT1 exon 5 minigene, HEK293

First: C6A U7C C9A U10C U27C G28A
Second: G5C C6U G8C C9U U10C G12C G13C
The “exon inclusion enrichment index” value of the first is higher: 3.15 for the first, 0.312 for the second.

Compared with G5U G8U C9A, G5C C6G U7C U10C G21U is higher in “exon inclusion enrichment index” value: 0.194 for the first, 2.48 for the second.

Compared with C6A U7C G8A C9G U10C, G5A C6G U7G C9A C24U A25G is lower in “exon inclusion enrichment index” value: 1.39 for the first, 0.00148 for the second.

Compared with G5C C6U G8C C9U U10C G34C A35U, G5C C6G U7A U10C is higher in “exon inclusion enrichment index” value: 0.385 for the first, 2.53 for the second.

First: G5A C6G U7G C9A U27A G28C
Second: G5A C6G U7G C9A U27A G28A
The “exon inclusion enrichment index” value of the first is higher: 0.0045 for the first, 0.00156 for the second.

Going from G5C C6A U7C G8A U10A A45C G46U to C6A U7C C9A U10C A23G C24G, the “exon inclusion enrichment index” value rises from 0.0352 to 4.2.

First: C6A U7C C9A U10C A14G
Second: C6A U7C C9A U10C G34C A35G
The “exon inclusion enrichment index” value of the first is higher: 4.78 for the first, 2.67 for the second.

Compared with G5C C6A U7C G8A U10A A25U G26A, C6A U7A C9A U10A G26C U27G is higher in “exon inclusion enrichment index” value: 0.172 for the first, 2.09 for the second.

Compared with G5A C6G U7G C9A G38C A39G, G5U G8U C9U A23U is higher in “exon inclusion enrichment index” value: 0.00244 for the first, 0.0459 for the second.

First: G2C U3A G5C C6A U7C G8A U10A
Second: G5A U7C G8A U10C G34C A35C
The “exon inclusion enrichment index” value of the first is lower: 0.0802 for the first, 0.149 for the second.

Compared with G5A U7C G8A U10C A47C G48U, G5C C6G U7C U10C G43C C44U is higher in “exon inclusion enrichment index” value: 2.34 for the first, 3.09 for the second.

First: C6A U7A C9A U10A G38U A39G
Second: G5A C6G U7G C9A C44U A45U
The “exon inclusion enrichment index” value of the first is higher: 0.321 for the first, 0.000761 for the second.

First: G5A U7C G8A U10C C44A
Second: G5A C6G U7G C9A G41U G42A
The “exon inclusion enrichment index” value of the first is higher: 3.82 for the first, 0.000614 for the second.

Compared with G5C C6A U7C G8A U10A U32A G33C, G5A U7C G8A U10C C16G U17C is higher in “exon inclusion enrichment index” value: 0.174 for the first, 1.06 for the second.

Going from G5A U7C G8A U10C A40C G41U to G5A C6G U7G C9A C16A U17A, the “exon inclusion enrichment index” value falls from 1.28 to 0.00207.

Compared with G5C C6U G8C C9U U10C A31C U32G, U3A U4G is lower in “exon inclusion enrichment index” value: 2.49 for the first, 0.0422 for the second.

Compared with C6A U7C C9A U10C G13C A14C, G5A C6G U7G C9A A45C G46U is lower in “exon inclusion enrichment index” value: 2.43 for the first, 0.0014 for the second.

Compared with G5A C6U U7A G8U C9A U32A, G5A U7C G8A C9A U10G is higher in “exon inclusion enrichment index” value: 0.0571 for the first, 0.509 for the second.

Compared with C19G A20U, A40G G41A is lower in “exon inclusion enrichment index” value: 2.21 for the first, 0.0243 for the second.

Going from G5U G8U C9U A25C to G5A C6U U7C C9A, the “exon inclusion enrichment index” value rises from 0.793 to 1.32.

Compared with G5A C6G U7G C9A G11A G12A, G5A C6U U7A G8U C9A A45G G46U is higher in “exon inclusion enrichment index” value: 0.00145 for the first, 0.0592 for the second.

Going from G5A U7C G8A U10C C44U A45C to G5C C6U G8C C9U U10C G43U C44U, the “exon inclusion enrichment index” value falls from 3.16 to 0.567.

Going from G5C C6A U7C G8A U10A A23U C24G to G5A U7C G8A U10C G43A, the “exon inclusion enrichment index” value rises from 0.159 to 4.17.

Going from G5U C6A U7C G8U C9U to U17G, the “exon inclusion enrichment index” value rises from 0.164 to 0.247.

Going from G5A C6U U7A G8U C9A A39U A40G to G5U G8U C9U G48C, the “exon inclusion enrichment index” value rises from 0.0054 to 0.251.

Compared with G5U G8U C9U G34U A35G, C6A U7A C9A U10A C19U is higher in “exon inclusion enrichment index” value: 0.0289 for the first, 0.0565 for the second.

G5A C6U U7A G8U C9A G42A and G5A C6G U7C G8A U10C are the same in “exon inclusion enrichment index” value: 0.446 for the first, 0.446 for the second.

First: C6A U7A C9A U10A G42C G43U
Second: G5C C6A U7C G8A U10A A30U
The “exon inclusion enrichment index” value of the first is higher: 1.96 for the first, 0.0402 for the second.

First: G5A C6U U7A G8U C9A A29U A30G
Second: G5C C6U G8C C9U U10C G28A
The “exon inclusion enrichment index” value of the first is lower: 0.0618 for the first, 0.598 for the second.

First: G5C C6G U7C U10C G43U C44A
Second: U3G U4C
The “exon inclusion enrichment index” value of the first is lower: 0.0721 for the first, 0.16 for the second.

Compared with U3C G5U G8U C9U, G5A C6U U7A G8U C9A G11C G12U is lower in “exon inclusion enrichment index” value: 0.0225 for the first, 0.0197 for the second.

Compared with C6A U7C C9A U10C U17C C18U, G5A C6G U7G C9A A47C G48A is lower in “exon inclusion enrichment index” value: 3.39 for the first, 0.011 for the second.

Going from G5A C6G U7G C9A U10A to G5A C6G U7G C9A U10G, the “exon inclusion enrichment index” value rises from 0.00068 to 0.00589.

Compared with G5U G8U C9U A47U G48A, G5A C6G U7G C9A G15C C16U is lower in “exon inclusion enrichment index” value: 0.0727 for the first, 0.000839 for the second.

First: G5A C6G U7G C9A A29G A30C
Second: G5C C6A U7C G8A U10A C22U A23C
The “exon inclusion enrichment index” value of the first is lower: 0.000858 for the first, 0.0379 for the second.

Compared with G5C C6U G8C C9U U10C A35C C36A, G5A U7C G8A U10C C24G A25G is lower in “exon inclusion enrichment index” value: 1.37 for the first, 1.35 for the second.

Compared with U3A U4C G5C C6A U7C G8A U10A, G5C C6G G8C C9U U10C is higher in “exon inclusion enrichment index” value: 0.389 for the first, 3.14 for the second.

First: G2U U3C G5C C6U G8C C9U U10C
Second: C6A U7A C9A U10A G38A
The “exon inclusion enrichment index” value of the first is higher: 3.63 for the first, 0.314 for the second.

First: G41U
Second: G5C C6A U7C G8A U10A A35C C36A
The “exon inclusion enrichment index” value of the first is higher: 0.16 for the first, 0.0377 for the second.

Going from A35G C36A to G5C C6G U7C U10C A45C G46A, the “exon inclusion enrichment index” value rises from 0.0734 to 2.12.

Going from G5A U7C G8A U10C U17C C18A to G5C C6A U7C G8A U10A A45G, the “exon inclusion enrichment index” value falls from 1.54 to 0.276.

Compared with U4C G5A C6A U7C C9A U10C, C6A U7C C9A U10C G28U is lower in “exon inclusion enrichment index” value: 4.23 for the first, 1.34 for the second.
